Patent publication EP4786492A1 (Simcere Zaiming Pharmaceutical Co., Ltd., dated 2026)

T1: human DLL3-his protein (human, UniProt Q9NYJ7 27-492)
T1 construct: also called human DLL3 protein; DLL3 antigen protein; not shown: His tag
T1 sequence: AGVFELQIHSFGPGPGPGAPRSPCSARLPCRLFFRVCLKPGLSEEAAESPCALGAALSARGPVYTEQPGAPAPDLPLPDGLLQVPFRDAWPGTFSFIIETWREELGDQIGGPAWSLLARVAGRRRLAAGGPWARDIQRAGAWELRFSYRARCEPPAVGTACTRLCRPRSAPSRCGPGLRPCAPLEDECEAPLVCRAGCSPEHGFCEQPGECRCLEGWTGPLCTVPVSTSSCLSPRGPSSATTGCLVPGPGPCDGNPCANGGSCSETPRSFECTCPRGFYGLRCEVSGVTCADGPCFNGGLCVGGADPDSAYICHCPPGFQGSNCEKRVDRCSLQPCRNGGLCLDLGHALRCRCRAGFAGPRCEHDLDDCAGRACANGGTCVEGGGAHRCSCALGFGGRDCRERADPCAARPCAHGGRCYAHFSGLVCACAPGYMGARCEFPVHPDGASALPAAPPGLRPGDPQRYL

T2: monkey DLL3 on CHO K1-cyno DLL3 cells (cynomolgus monkey)
T2 construct: also called monkey DLL3 recombinant cell line
T2 chain: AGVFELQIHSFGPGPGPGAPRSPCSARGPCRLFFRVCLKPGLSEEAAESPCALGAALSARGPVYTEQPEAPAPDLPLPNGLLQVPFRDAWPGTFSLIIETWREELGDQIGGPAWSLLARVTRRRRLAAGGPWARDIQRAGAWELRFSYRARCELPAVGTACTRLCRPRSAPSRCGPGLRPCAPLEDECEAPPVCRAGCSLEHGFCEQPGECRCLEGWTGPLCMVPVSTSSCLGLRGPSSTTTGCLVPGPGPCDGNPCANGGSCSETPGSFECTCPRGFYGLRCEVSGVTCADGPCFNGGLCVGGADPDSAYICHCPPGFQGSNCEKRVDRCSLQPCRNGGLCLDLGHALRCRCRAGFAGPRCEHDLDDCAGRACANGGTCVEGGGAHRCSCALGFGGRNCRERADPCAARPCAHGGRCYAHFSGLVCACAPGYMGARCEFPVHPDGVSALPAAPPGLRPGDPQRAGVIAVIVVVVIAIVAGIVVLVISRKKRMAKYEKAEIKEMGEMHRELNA

T3: human DLL1 protein (human, UniProt O00548 18-540, limits assumed)
T3 construct: bought protein; construct and tag not described; also called hDLL1
T3 sequence (looked up): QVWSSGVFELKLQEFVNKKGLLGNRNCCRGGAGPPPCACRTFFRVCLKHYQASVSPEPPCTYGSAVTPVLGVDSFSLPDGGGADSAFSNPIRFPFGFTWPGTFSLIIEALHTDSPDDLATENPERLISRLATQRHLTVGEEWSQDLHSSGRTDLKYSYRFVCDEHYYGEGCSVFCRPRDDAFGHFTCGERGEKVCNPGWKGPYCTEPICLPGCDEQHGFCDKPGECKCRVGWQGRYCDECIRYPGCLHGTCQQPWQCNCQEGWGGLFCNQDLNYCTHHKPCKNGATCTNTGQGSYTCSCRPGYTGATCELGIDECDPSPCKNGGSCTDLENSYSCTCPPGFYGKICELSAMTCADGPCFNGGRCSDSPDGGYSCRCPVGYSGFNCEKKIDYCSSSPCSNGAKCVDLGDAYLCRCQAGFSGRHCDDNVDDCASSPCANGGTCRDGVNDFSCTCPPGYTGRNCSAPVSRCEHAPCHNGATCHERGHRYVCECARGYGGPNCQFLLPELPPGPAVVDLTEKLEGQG

T4: human DLL3 protein (extracellular segment, His tag) (human, UniProt Q9NYJ7 27-492)
T4 construct: also called human DLL3-his protein; DLL3 antigen; not shown: His tag
T4 sequence: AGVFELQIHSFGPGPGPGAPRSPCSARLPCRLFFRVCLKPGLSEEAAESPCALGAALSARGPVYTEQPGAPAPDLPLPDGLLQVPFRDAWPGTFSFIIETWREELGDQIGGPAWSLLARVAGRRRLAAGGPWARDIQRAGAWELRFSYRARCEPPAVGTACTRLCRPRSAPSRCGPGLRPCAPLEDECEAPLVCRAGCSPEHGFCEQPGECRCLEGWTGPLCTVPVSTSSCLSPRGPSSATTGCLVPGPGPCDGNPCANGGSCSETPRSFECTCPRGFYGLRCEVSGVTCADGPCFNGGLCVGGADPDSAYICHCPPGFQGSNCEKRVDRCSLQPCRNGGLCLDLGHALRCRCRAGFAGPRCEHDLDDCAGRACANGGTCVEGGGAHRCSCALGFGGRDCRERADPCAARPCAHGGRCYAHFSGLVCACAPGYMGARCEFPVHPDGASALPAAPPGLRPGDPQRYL


Legend:
human DLL3-his protein = molecular target: T1, human DLL3-his protein; assay: ELISA
[1] = molecular target: T2, monkey DLL3 on CHO K1-cyno DLL3 cells; assay: FACS, CHO K1-cyno DLL3 cells
human DLL1 protein = molecular target: T3, human DLL1 protein; assay: ELISA, maximum over 0.1-100 nM
human DLL4 protein = molecular target: T5, human DLL4 protein (human, UniProt Q9NR61 27-524, limits assumed); assay: ELISA, maximum over 0.1-100 nM
T5 construct: bought protein; construct and tag not described; also called hDLL4

[2] = molecular target: T4, human DLL3 protein (extracellular …); assay: SPR (Biacore 8K), antibody captured on Protein A chip, DLL3 antigen in solution, 1:1 Langmuir fit

T5 sequence (Q9NR61 27-524 limits assumed): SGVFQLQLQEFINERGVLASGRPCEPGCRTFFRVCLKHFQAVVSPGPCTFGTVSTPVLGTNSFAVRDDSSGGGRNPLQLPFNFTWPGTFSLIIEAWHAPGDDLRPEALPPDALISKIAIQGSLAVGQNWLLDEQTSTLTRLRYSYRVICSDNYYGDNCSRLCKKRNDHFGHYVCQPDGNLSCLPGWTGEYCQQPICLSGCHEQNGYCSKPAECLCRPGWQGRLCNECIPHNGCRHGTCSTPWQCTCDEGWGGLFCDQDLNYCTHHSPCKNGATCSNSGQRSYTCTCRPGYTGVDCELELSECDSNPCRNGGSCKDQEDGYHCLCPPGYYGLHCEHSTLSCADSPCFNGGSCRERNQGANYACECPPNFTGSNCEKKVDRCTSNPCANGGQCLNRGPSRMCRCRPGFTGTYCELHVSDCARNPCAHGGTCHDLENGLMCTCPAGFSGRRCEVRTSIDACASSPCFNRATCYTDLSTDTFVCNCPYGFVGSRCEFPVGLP

binding result (human DLL3-his protein)	binding result [1]	Emax of OD450 nm binding value (human DLL1 protein) [OD450]	Emax of OD450 nm binding value (human DLL4 protein) [OD450]	Kd [2] [nM]	koff [2] [s⁻¹]	kon [2] [M⁻¹ s⁻¹]	Binder
binds	binds	0.08	0.06				mab014 scFv-hFc (Fc fusion, human-murine chimeric scFv-hFc, VL-linker-VH-human IgG1 Fc; not shown: linker; Fc fragment of human IgG1) scFv (part 1 of 2): DIQMTQSSSSFSVSLGDRVTITCKASEDIYNRLAWYQQKPGNTPRLLISGATSLETGVPSRFSGSGSGKDFTLSITSLQTEDVATYYCQQYWSLPWTFGGGTKLEIK scFv (part 2 of 2): EVQLHQSGPELVKPGTSVKISCKASGYTFTDYYMNWVKQSHGKSLEWIGDINPNHGDTGYNQKFTGKATLTVDKSSSTAYMELRSLTSEDSAVYYCARNFFYYGTTYGWYFDVWGTGTTVTVSS
binds	binds	0.08	0.08				mab012 scFv-hFc (Fc fusion, human-murine chimeric scFv-hFc, VL-linker-VH-human IgG1 Fc; not shown: linker; Fc fragment of human IgG1) scFv (part 1 of 2): DVLMTQTPLSLPVSLGDQASISCRSSQSIVHSDGNTYLEWYLQKPGQSPKLLIYKVSNRFSGVPDRFSGSGSGTDFTLKISRVEAEDLGFYYCFQGSHVPFTFGSGTKLEIK scFv (part 2 of 2): QVQLQQSGPELVKPGASVKISCKASGYTFTDYYIHWVKQRPGQGLEWIGWTLPGSGSPYYNEKFKGKATLTVDKSSSTAYMLLSSLTSEDSAVYFCARWHYYYGSSYHFDYWGQGTTLTVSS
binds	binds	0.05	0.04				mab016 scFv-hFc (Fc fusion, human-murine chimeric scFv-hFc, VL-linker-VH-human IgG1 Fc; not shown: linker; Fc fragment of human IgG1) scFv (part 1 of 2): DIVMTQSQKFMSTTIGDRVSITCKASQNVGTTVAWYQQKPGQSPNLLLYSTSNRFTGVPDRFTGSGSGTDFTLTITNMQSEDLADYFCQQYNNYPLTFGGGTKLEIK scFv (part 2 of 2): EVNLEESGGGLVQPGGSMKLSCVASGFAFSNFWMQWVRQSPEKGLEWVAQIRLKSDNYAAHYAESVKGRFTISRDDSKSSVYLQLNNLRAEDTGTYYCTQGNWVGFAYWGQGTLVTVSA
binds	binds	0.09	0.08				mab008 scFv-hFc (Fc fusion, human-murine chimeric scFv-hFc, VL-linker-VH-human IgG1 Fc; not shown: linker; Fc fragment of human IgG1) scFv (part 1 of 2): DIVMTQSQKFMSTSVGDRVSITCKASQNVGTAVAWYQQKPGQSPKLLIFSASIRYTGVPDRFTGSGSGTDFTLTISNMQSEDLADYFCQQYSSSPYTFGGGTKLEIK scFv (part 2 of 2): EVQLQQSGPVLVKPGASVKMSCKASGYTFTDYYMNWVKRSHGKSLEWIGIINPYNGGTSYNQKFRGKATLTVDKSSNTAYMELNSLTSEDSAVYYCSRYDYDYDVEGAMDYWGQGTSVTVSS
binds	binds	0.05	0.05				mab002 scFv-hFc (Fc fusion, human-murine chimeric scFv-hFc, VL-linker-VH-human IgG1 Fc; not shown: linker; Fc fragment of human IgG1) scFv (part 1 of 2): QIVLTQSPAIMSASPGEKVTMTCSARSSVSYMQWYQQKSGTSPKRWIYDTSKLASGVPARFSGSGSGTSYSLTISTMEAEDAATYYCQQWSSDPPTFGGGTKLEIK scFv (part 2 of 2): QIQLVQSGPELKKPGETVKISCKASGYTFTNYGMNWLKQAPGKGLKWMGWINTYTGESTYADDFKGRFAFSLETSASTVYLQINNLKNEDMATYFCARMGDGYYDFTMDYWGQGTSVTVSS
binds	binds	0.06	0.05				mab003 scFv-hFc (Fc fusion, human-murine chimeric scFv-hFc, VL-linker-VH-human IgG1 Fc; not shown: linker; Fc fragment of human IgG1) scFv (part 1 of 2): DVQITQSPSYLAASPGETITINCRASKSISKYLAWYQEKPGKTNKLLIYSGSTLHSGIPSRFSGSGSGTDFTLTISSLEPEDFAIYYCQQHNEYPLTFGGGTKLELK scFv (part 2 of 2): QVQLQQSGTELMKPGASVKLSCKATGYTFTGNWIEWVKQRPGHGLEWIGEILPGTGSTQYNEKFKGKATFTADPSSNTAYMQLSSLTTEDSAIYYCARWGSTVVAYDYWGQGTTLTVSS
binds	binds	0.08	0.07				mab006 scFv-hFc (Fc fusion, human-murine chimeric scFv-hFc, VL-linker-VH-human IgG1 Fc; not shown: linker; Fc fragment of human IgG1) scFv (part 1 of 2): DVQITQSPSYLAASPGETITINCRATKSISKYLAWYQEKPGKTNKLLIFSGSTLQSGIPSRFRGSGSGTDFTLTISSLEPEDFAMYYCQQHHEYPYTFGGGTKLEIK scFv (part 2 of 2): QVQLQQPGAELVRPGTSVKLSCKASGYTFTSYWMHWVRQRPGQGLEWIGVIDPSDSLANYNQEFKGKATLTVDTSSSTAYMQLSSLTSEDSAVYYCARDSTVVAPMDYWGQGTSVTVSS
binds	binds	0.07	0.06				mab007 scFv-hFc (Fc fusion, human-murine chimeric scFv-hFc, VL-linker-VH-human IgG1 Fc; not shown: linker; Fc fragment of human IgG1) scFv (part 1 of 2): DVQITQSPSYLAASPGETITINCRASTSISKYLAWYQERPGKTNKLLIYSGSTLQSGIPSRFRGSGSGTDFTLTISSLEPEDFAMYYCQQHHVYPYTFGGGTKLEIK scFv (part 2 of 2): QVQLQQPGAELVRPGTSVKLSCKASGYTFTSYWMHWVKQRPGQGLEWIGVIDPSDSLANYNQEFKGKATLTVDTSSSTAYMQLSSLTSEDSAVYYCARDSTVVAPMDYWGQGTSVTVSS
binds	binds	0.06	0.06				mab011 scFv-hFc (Fc fusion, human-murine chimeric scFv-hFc, VL-linker-VH-human IgG1 Fc; not shown: linker; Fc fragment of human IgG1) scFv (part 1 of 2): DIVLTQSPATLSVTPGDSVSLSCRASQSISNNLHWYQQKSHESPRLLIKYASQSISGIPSRFSGSGSGTDFTLSINSVETEDFGMYFCQQSNSWPWTFGGGTKLEIK scFv (part 2 of 2): EVQLQQSGPELVKPGASVKISCKASGYTFTDYYMNWVKQSHGKSLEWIGDISPNYGGTNYNQKFKGKATLTVDKSSSTACMELRSLTSEDSAVYYCTRSFYYYGTGYDWYFDVWGTGTTVTVSS
binds	binds	0.05	0.04				mab005 scFv-hFc (Fc fusion, human-murine chimeric scFv-hFc, VL-linker-VH-human IgG1 Fc; not shown: linker; Fc fragment of human IgG1) scFv (part 1 of 2): DIVLTQSPATLSVTPGDSVSLSCRASQSVSNDLHWYQQKSHESPRLLIKYASQSISGIPSRFSGSGSGTDFTLTINSVETEDFGMYFCQQSNNWPYTFGGGTKLEMK scFv (part 2 of 2): QVQLQQSGAELMKPGASVTLSCKATGYTLPGYWIEWVKQRPGHGLEWIGEILPGSSSANYNEKFKGKATFTADTSSNTAYMQLSSLTTEDSAIYYCASTYGTSLDYWGQGTTLTVSS
				0.0497	4.7e-05	945000	BI3 (antibody, human IgG1, kappa, V domains shown, control antibody in complete IgG format, variable regions from WO2019234220A1) VH: QVQLVQSGAEVKKPGASVKVSCKASGYTFTSYYVHWVRQAPGQGLEWMVIINPGGGTTSYAQKFLGRVTMTRDTSTNTVYMELKSLRSEDTAVYYCARGEAVTGNYFYYGMDVWGQGTTVTVSS VL: DIQMTQSPSAMSASVGDRVTITCRASQGISNYLVWFQQKPGKAPKRLIYAVSSLYSGVPSRFSGSGSGTEFTLTISSLQPEDFATYYCLQHDSYPYTFGQGTKLEIKR
binds	binds	0.05	0.05				mab001 scFv-hFc (Fc fusion, human-murine chimeric scFv-hFc, VL-linker-VH-human IgG1 Fc; not shown: linker; Fc fragment of human IgG1) scFv (part 1 of 2): not shown scFv (part 2 of 2): QIQLVQSGPELKKPGETVKISCKASGYTFTTYGMSWVKQAPGKGLKWMGWINTYSGVPTYADDFKGRFAFSLETSASTAYLQINNLKNEDTATYFCARIGDYDYGEYWGQGTLVTVSA
binds	binds	0.05	0.04				mab004 scFv-hFc (Fc fusion, human-murine chimeric scFv-hFc, VL-linker-VH-human IgG1 Fc; not shown: linker; Fc fragment of human IgG1) scFv (part 1 of 2): DIVLTQSPASLAVSLGQRATISCRASESVDYDGDSYMNWYQQKPGQPPKLLIYVASNLESGIPARFSGSGSGTDFILNIHPVEEEDAATYYCLQSNEAPYTFGSGTKLEIK scFv (part 2 of 2): QVQLQQPGAELVKPGASVKLSCKASGYTFTSYWINWVKQRPGQGLEWIGNIYPGSSSPNYNEKFKSKATLTVDTSSSTAYMQLSSLTSDDSAVYYCARSLLYAMDYWGQGTSVTVSS
